Results on three molecules are retold here after paper PMC9765508, “Metabolic Promiscuity of an Orphan Small Alarmone Hydrolase Facilitates Bacterial Environmental Adaptation” (mBio, 2022).

The target of one data set is T1, B. subtilis Rel (Bacillus subtilis, UniProt O54408).
T1 construct: gene relA; purified; construct and tag not described
Briefly: […]-labelled nucleotide hydrolysis, TLC. Format: biochemical. Conditions: 20 mM Tris-HCl pH 7.5, 1 mM MnCl2, 37 °C, 240 nM enzyme; labelled compound.

Data set [1] concerns Nc1nc2c(ncn2[C@@H]2O[C@H](COP(=O)(O)OP(=O)(O)O)[C@@H](OP(=O)(O)OP(=O)(O)O)[C@H]2O)c(=O)[nH]1. The data set can be described thus: purified protein. Conditions: 20 mM Tris-HCl pH 7.5, 1 mM MnCl2, 37 °C, 50 nM enzyme. The data set is classed as biochemical, Xanthomonas campestris.
Data set [2] concerns Nc1nc2c(ncn2[C@@H]2O[C@H](COP(=O)(O)O)[C@@H](OP(=O)(O)OP(=O)(O)O)[C@H]2O)c(=O)[nH]1. Briefly: purified protein. Format: biochemical, Xanthomonas campestris. Conditions: 20 mM Tris-HCl pH 7.5, 1 mM MnCl2, 37 °C, 50 nM enzyme.
In data set [3] the test system is Nc1nc2c(ncn2[C@@H]2O[C@H](COP(=O)(O)OP(=O)(O)OP(=O)(O)O)[C@@H](OP(=O)(O)OP(=O)(O)O)[C@H]2O)c(=O)[nH]1. The data set can be described thus: purified protein. Format: biochemical, Xanthomonas campestris. Conditions: 20 mM Tris-HCl pH 7.5, 1 mM MnCl2, 37 °C, 50 nM enzyme.
For data set [4], the system named is Nc1ncnc2c1ncn2[C@@H]1O[C@H](COP(=O)(O)OP(=O)(O)OP(=O)(O)O)[C@@H](OP(=O)(O)OP(=O)(O)O)[C@H]1O. The data set can be described thus: purified protein. The data set is classed as biochemical, Xanthomonas campestris. The settings on record: 20 mM Tris-HCl pH 7.5, 1 mM MnCl2, 37 °C, 25 nM enzyme.
Substrate in data set [5]: NC(=O)C1=CN([C@@H]2O[C@H](COP(=O)(O)OP(=O)(O)OC[C@H]3O[C@@H](n4cnc5c(N)ncnc54)[C@H](OP(=O)(O)O)[C@@H]3O)[C@@H](O)[C@H]2O)C=CC1
Briefly: phosphate release, malachite green assay, Michaelis-Menten fit. The data set is classed as biochemical, Xanthomonas campestris. The settings on record: 20 mM Tris-HCl pH 8, 1 mM MnCl2, 37 °C, 1 μM enzyme. An excerpt:
phosphate release, malachite green assay, Michaelis-Menten fit on XccSAH

T1 sequence (O54408 whole entry): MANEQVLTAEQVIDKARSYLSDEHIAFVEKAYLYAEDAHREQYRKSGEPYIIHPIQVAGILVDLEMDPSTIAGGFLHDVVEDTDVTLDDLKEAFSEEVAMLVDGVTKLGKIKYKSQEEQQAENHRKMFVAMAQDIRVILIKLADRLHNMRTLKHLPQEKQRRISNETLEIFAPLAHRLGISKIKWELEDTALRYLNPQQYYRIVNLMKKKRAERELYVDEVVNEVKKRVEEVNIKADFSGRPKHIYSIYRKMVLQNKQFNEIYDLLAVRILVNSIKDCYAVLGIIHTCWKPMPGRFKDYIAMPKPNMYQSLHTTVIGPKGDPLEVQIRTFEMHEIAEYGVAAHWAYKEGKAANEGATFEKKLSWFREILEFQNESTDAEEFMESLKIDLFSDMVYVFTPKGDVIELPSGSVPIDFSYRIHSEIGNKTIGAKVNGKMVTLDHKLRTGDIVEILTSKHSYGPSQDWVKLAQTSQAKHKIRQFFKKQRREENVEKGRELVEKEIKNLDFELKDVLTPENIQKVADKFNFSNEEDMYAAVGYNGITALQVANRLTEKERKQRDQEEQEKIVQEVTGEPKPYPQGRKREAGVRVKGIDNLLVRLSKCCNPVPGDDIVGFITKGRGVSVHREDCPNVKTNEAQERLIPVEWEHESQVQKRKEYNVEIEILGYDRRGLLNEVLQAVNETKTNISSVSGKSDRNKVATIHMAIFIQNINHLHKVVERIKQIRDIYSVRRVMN

On to `Nc1nc2c(ncn2[C@@H]2O[C@H](COP(=O)(O)O)[C@@H](OP(=O)(O)OP(=O)(O)O)[C@H]2O)c(=O)[nH]1` [pGpp], for which the “32P-labelled nucleotide hydrolysis, TLC” value on B. subtilis Rel is “We found that B. subtilis Rel could also hydrolyze pGpp to GMP”.

One may read the Km as the substrate concentration at which the rate is half of its maximum. The Vmax is the top rate of the reaction or transport when substrate is in excess. For orientation: kcat means the maximal rate divided by the concentration of active sites. The term kcat/Km denotes the turnover number divided by the Michaelis constant. Take “XccSAH (Xanthomonas campestris pv. campestris str. ATCC 33913)”: in data set [1], the Km was determined as 14.13 ± 2.02 µM, the Vmax is 21 µM/min, the kcat was 6.99 ± 0.15 s⁻¹ and the kcat/Km was found to be 500000 ± 82000 M⁻¹ s⁻¹. Moreover, in data set [2], the Km was 19.73 ± 4.75 µM, the Vmax turned out to be 4.89 µM/min, the kcat was 1.63 ± 0.07 s⁻¹ and the kcat/Km turned out to be 86000 ± 18000 M⁻¹ s⁻¹. Further, in data set [3], the Km was found to be 29.14 ± 4.41 µM, the Vmax was determined as 42.9 µM/min, the catalytic constant (kcat) turned out to be 14.3 ± 1.45 s⁻¹ and the kcat/Km was 493000 ± 25000 M⁻¹ s⁻¹. In addition, in data set [4], the Km was found to be 45.82 ± 3.87 µM, the Vmax is 73.1 µM/min, the kcat is 48.8 ± 2.99 s⁻¹ and the kcat/Km came to 1.07e+06 ± 75000 M⁻¹ s⁻¹.

B1: XccSAH (Xanthomonas campestris pv. campestris str. ATCC 33913) (protein)
chain: MTALTERYAQAVDYARIAHAGQLRKGTQIPYLSHLLGVSTLVLECGGDEDQAIAGLLHDVVEDCGGGHEGSIRAQFGDAVADIVMACTDATAEDKADVDNTASARKRDWRERKQSYLAHLRKTPERALLVSGCDKLYNARTIVQDLENPDVGQEIFNVFTAGRDGTLWYYAALEEIFRTRKAATARLFSGVVARMQALADSSIDTVPAHAVA
Turning to B1, in data set [5], the Km is 132.2 ± 39.09 µM, the maximal velocity (Vmax) turned out to be 2.88 µM/min, the kcat stood at 0.048 ± 0.004 s⁻¹ and the kcat/Km worked out at 363 ± 20 M⁻¹ s⁻¹.
